Test [1] has as its target T1, human iRhom1, endogenously expressed (human, UniProt Q96CC6 1-855).
T1 construct: also called iRhom1 on RH-30 cells
T1 sequence: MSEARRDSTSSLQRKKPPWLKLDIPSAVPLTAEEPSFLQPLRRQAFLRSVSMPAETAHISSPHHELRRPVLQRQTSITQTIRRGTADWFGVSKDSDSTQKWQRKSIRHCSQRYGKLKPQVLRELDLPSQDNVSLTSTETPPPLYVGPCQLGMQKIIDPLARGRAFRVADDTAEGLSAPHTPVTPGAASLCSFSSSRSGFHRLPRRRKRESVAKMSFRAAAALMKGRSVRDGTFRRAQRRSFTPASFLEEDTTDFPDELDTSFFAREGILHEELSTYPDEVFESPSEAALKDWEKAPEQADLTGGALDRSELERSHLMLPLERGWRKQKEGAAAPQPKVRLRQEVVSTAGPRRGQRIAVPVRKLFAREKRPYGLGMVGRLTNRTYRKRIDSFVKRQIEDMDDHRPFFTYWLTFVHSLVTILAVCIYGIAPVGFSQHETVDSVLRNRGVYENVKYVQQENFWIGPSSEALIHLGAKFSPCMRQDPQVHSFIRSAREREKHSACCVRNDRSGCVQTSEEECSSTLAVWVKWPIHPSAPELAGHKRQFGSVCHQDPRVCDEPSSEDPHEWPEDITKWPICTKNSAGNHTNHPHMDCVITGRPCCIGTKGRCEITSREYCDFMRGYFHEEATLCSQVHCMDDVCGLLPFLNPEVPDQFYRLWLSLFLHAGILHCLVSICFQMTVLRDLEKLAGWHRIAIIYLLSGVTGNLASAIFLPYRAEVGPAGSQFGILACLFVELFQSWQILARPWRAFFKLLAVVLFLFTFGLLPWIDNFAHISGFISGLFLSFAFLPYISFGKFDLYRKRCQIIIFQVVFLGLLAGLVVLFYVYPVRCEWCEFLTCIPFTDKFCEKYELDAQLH
Briefly: FACS on RH-30 cells (iRhom1-positive, not iRhom2-positive).

The target in another test is T2, hiR2-FL-H505R-T7 (human, UniProt Q6PJF5 1-856).
T2 sequence: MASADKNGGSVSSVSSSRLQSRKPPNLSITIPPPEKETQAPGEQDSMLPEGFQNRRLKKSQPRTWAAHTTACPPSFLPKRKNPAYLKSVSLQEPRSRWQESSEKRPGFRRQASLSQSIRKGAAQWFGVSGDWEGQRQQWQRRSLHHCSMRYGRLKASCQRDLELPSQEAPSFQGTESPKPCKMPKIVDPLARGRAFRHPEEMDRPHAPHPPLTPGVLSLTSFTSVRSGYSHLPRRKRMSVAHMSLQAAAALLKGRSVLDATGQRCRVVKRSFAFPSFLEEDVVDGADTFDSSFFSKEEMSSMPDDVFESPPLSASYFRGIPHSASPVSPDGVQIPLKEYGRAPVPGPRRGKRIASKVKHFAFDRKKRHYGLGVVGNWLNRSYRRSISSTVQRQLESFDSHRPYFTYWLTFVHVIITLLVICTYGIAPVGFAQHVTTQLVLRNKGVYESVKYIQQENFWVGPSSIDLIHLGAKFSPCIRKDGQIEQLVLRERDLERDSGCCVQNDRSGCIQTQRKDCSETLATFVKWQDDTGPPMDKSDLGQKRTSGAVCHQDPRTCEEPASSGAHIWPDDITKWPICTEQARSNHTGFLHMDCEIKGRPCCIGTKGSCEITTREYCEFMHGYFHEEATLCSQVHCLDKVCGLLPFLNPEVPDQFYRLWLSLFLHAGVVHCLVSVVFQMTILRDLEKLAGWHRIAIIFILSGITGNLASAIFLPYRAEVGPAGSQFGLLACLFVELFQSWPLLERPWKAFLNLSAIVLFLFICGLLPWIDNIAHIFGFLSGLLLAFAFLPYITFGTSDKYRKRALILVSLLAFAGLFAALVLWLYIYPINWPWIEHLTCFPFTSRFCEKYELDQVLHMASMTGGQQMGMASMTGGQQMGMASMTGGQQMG
In words: FACS on MEF-DKO cells.

The next test addresses T3, hiR2-FL-K536A-T7 (human, UniProt Q6PJF5 1-856).
T3 construct: on MEF-DKO cells
T3 sequence: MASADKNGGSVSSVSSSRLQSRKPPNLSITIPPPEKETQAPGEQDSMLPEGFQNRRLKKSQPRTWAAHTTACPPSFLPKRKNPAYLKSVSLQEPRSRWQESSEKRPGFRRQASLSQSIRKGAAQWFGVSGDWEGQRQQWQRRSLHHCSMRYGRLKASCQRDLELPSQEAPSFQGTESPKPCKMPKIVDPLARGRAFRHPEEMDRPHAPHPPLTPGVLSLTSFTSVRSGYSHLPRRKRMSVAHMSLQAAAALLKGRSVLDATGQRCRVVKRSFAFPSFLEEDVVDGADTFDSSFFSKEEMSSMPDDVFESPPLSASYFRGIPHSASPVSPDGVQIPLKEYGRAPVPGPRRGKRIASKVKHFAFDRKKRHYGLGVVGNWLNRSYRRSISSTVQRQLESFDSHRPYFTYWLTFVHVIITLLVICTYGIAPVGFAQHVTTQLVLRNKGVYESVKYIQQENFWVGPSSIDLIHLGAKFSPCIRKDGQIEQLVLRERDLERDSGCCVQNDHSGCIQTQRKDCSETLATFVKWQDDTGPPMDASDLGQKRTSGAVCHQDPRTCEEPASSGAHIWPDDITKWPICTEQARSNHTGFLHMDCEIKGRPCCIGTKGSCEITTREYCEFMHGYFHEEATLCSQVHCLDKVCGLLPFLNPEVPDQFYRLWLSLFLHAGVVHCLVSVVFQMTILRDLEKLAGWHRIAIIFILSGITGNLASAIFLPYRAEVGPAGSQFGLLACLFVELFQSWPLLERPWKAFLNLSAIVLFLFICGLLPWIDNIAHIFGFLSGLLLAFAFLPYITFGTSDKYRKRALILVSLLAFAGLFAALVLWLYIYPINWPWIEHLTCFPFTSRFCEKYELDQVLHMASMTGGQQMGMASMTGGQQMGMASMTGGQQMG
Briefly: FACS on MEF-DKO-hiR2-FL-K536A-T7 cells.

B1: antibody 16 (antibody, V domains shown)
VH: QVTLKESGPGILQPSQTLSLTCSFSGFSLSTFALGVGWIRQPSGRGLEWLAHIWWDDDKYYNPALKSRLTISKDTSKNHVFLKIANVDTADTATYYCARITTYYYGMDYWGQGTSVTVSS
VL: DIVLSQSPATLSVTPGDSVSLFCRASQSIGNHLHWYQQESHASPRLLIKYASQSISGIPSRFSGSGSGTDFTLSINSVETEDFGMYFCQQSYNWPLTFGAGTKLELK
notes: mouse IgG, kappa light chain; also called clone #16; purified antibody 16
With B1, the binding result in test [1] is “no binding (tested: 3 µg/ml)”.

B2: antibody 50 (antibody, V domains shown)
VH: QVQLQQSGAELVRPGASVKVSCKASGYAFSNYLIEWVKQRPGQGLEWIGVINPGSGFTKYNEKFKGKATLTADKSSSTAYMQLSSLTSEDSAVYFCARGLYRAMDYWGQGTSVTVSS
VL: DIQMTQSPASQSASLGESVTITCLASQTIGTWLAWYQQKPGKSPQLLIYAAASLADGVPSRFSGGGSGTKFSFKISSLQAEDFVNYYCQQIYSTPYTFGGGTKLEIK
notes: mouse IgG, kappa light chain; also called clone #50; purified antibody 50
As to B2, the binding result with hiR2-FL-H505R-T7 was “no binding (tested: 3 µg/ml)”.

B3: antibody 5 (antibody, V domains shown)
VH: QVTLKESGPGILQPSQTLSLTCSFSGFSLSTFGMGVGWIRQPSGKGLEWLAHIWWDDEKYYNSALKSRLTISKATSKNQAFLKIANVDTADTATYYCARISNYGSNYWYFNVWGTGTTVTVSS
VL: QVVLTQSPALMSASPGEKVTMTCSAGSSVSCMYWYQQKPGSSPRVLIYDTSNLASGVPARFTGSGSGTSYSLTISRMEAEDAASYYCQQWNSYPLTFGAGTKLELK
notes: mouse IgG, kappa light chain; also called clone #5; purified antibody 5
Regarding B3, the binding result in the test with hiR2-FL-K536A-T7 is “no binding (tested: 3 µg/ml)”.

Source of the values: patent US20240287172A1 (SCIRHOM, published 2024).
